# Measurements: PMC5730568
# Experiments:
# SRSF1-His6 (23 kDa) = SRSF1-His6 (23 kDa) (UniProt Q07955); assay: EMSA; conditions: MBNL1 filter binding: 250 mM NaCl, 15 mM KCl, 50 mM Tris-HCl pH 8.0, 0.05% Tween-20, 1 mM MgCl2, 37 C, 15 min, SRSF1 EMSA: 100 mM NaCl, 20 mM HEPES-Na pH 8.0 …
# [1] = system: GST-MBNL1-His6 (truncated 41-kDa isoform); assay: filter binding; conditions: MBNL1 filter binding: 250 mM NaCl, 15 mM KCl, 50 mM Tris-HCl pH 8.0, 0.05% Tween-20, 1 mM MgCl2, 37 C, 15 min, SRSF1 EMSA: 100 mM NaCl, 20 mM HEPES-Na pH 8.0 …
# Chain of UniProt Q07955 (Q07955 1-186): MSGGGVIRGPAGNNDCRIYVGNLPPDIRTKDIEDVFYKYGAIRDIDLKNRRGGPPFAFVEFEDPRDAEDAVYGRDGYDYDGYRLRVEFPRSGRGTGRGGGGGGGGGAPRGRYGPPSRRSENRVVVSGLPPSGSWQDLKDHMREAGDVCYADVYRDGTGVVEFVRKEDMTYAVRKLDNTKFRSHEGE
substance,measurement,setting,value
Nfix-RNA,Kd,SRSF1-His6 (23 kDa); no AON,60 nM
Mbnl1-RNA,Kd,SRSF1-His6 (23 kDa); no AON,13 nM
Atp2a1-RNA,binding signal (fold suppression),[1]; 0.5 uM 2'OMe AON (S4),8
same,binding signal (fold suppression),[1]; 0.5 uM 2'OMe-PS AON (S5),8
same,binding signal (fold suppression),[1]; 20 uM DNA AON (S120),8
GGGUUGGUACUAAGAAGUGCCUUUCCUGACGUCUCUGCUGCUUGGAACCGCUUCUAGAGCAGCCUCUGCUUUUGCCUUGCUUGCUGCCAGCUAGACUGACGACAGCACAUCCGCCCUCCACCUCUAGCCCAGACACCCCAUUUCUACUUCUAAUCAGGAGAAAAGCUCUGAGUAUCUGCCAUUGCCCUAGG [Mbnl1-RNA],Kd,SRSF1-His6 (23 kDa),13 nM
